Measurements as given in IntAct's records for PubMed 16890161.

B1: Low-density lipoprotein receptor-related protein 6 (Homo sapiens), O75581 (parent)
chain: MGAVLRSLLACSFCVLLRAAPLLLYANRRDLRLVDATNGKENATIVVGGLEDAAAVDFVFSHGLIYWSDVSEEAIKRTEFNKTESVQNVVVSGLLSPDGLACDWLGEKLYWTDSETNRIEVSNLDGSLRKVLFWQELDQPRAIALDPSSGFMYWTDWGEVPKIERAGMDGSSRFIIINSEIYWPNGLTLDYEEQKLYWADAKLNFIHKSNLDGTNRQAVVKGSLPHPFALTLFEDILYWTDWSTHSILACNKYTGEGLREIHSDIFSPMDIHAFSQQRQPNATNPCGIDNGGCSHLCLMSPVKPFYQCACPTGVKLLENGKTCKDGATELLLLARRTDLRRISLDTPDFTDIVLQLEDIRHAIAIDYDPVEGYIYWTDDEVRAIRRSFIDGSGSQFVVTAQIAHPDGIAVDWVARNLYWTDTGTDRIEVTRLNGTMRKILISEDLEEPRAIVLDPMVGYMYWTDWGEIPKIERAALDGSDRVVLVNTSLGWPNGLALDYDEGKIYWGDAKTDKIEVMNTDGTGRRVLVEDKIPHIFGFTLLGDYVYWTDWQRRSIERVHKRSAEREVIIDQLPDLMGLKATNVHRVIGSNPCAEENGGCSHLCLYRPQGLRCACPIGFELISDMKTCIVPEAFLLFSRRADIRRISLETNNNNVAIPLTGVKEASALDFDVTDNRIYWTDISLKTISRAFMNGSALEHVVEFGLDYPEGMAVDWLGKNLYWADTGTNRIEVSKLDGQHRQVLVWKDLDSPRALALDPAEGFMYWTEWGGKPKIDRAAMDGSERTTLVPNVGRANGLTIDYAKRRLYWTDLDTNLIESSNMLGLNREVIADDLPHPFGLTQYQDYIYWTDWSRRSIERANKTSGQNRTIIQGHLDYVMDILVFHSSRQSGWNECASSNGHCSHLCLAVPVGGFVCGCPAHYSLNADNRTCSAPTTFLLFSQKSAINRMVIDEQQSPDIILPIHSLRNVRAIDYDPLDKQLYWIDSRQNMIRKAQEDGSQGFTVVVSSVPSQNLEIQPYDLSIDIYSRYIYWTCEATNVINVTRLDGRSVGVVLKGEQDRPRAVVVNPEKGYMYFTNLQERSPKIERAALDGTEREVLFFSGLSKPIALALDSRLGKLFWADSDLRRIESSDLSGANRIVLEDSNILQPVGLTVFENWLYWIDKQQQMIEKIDMTGREGRTKVQARIAQLSDIHAVKELNLQEYRQHPCAQDNGGCSHICLVKGDGTTRCSCPMHLVLLQDELSCGEPPTCSPQQFTCFTGEIDCIPVAWRCDGFTECEDHSDELNCPVCSESQFQCASGQCIDGALRCNGDANCQDKSDEKNCEVLCLIDQFRCANGQCIGKHKKCDHNVDCSDKSDELDCYPTEEPAPQATNTVGSVIGVIVTIFVSGTVYFICQRMLCPRMKGDGETMTNDYVVHGPASVPLGYVPHPSSLSGSLPGMSRGKSMISSLSIMGGSSGPPYDRAHVTGASSSSSSSTKGTYFPAILNPPPSPATERSHYTMEFGYSSNSPSTHRSYSYRPYSYRHFAPPTTPCSTDVCDSDYAPSRRMTSVATAKGYTSDLNYDSEPVPPPPTPRSQYLSAEENYESCPPSPYTERSYSHHLYPPPPSPCTDSS

Variants of: B1
Conditions: with axin1_rat Axin1, O70239
Chain of axin1_rat Axin1, O70239 (O70239 whole entry): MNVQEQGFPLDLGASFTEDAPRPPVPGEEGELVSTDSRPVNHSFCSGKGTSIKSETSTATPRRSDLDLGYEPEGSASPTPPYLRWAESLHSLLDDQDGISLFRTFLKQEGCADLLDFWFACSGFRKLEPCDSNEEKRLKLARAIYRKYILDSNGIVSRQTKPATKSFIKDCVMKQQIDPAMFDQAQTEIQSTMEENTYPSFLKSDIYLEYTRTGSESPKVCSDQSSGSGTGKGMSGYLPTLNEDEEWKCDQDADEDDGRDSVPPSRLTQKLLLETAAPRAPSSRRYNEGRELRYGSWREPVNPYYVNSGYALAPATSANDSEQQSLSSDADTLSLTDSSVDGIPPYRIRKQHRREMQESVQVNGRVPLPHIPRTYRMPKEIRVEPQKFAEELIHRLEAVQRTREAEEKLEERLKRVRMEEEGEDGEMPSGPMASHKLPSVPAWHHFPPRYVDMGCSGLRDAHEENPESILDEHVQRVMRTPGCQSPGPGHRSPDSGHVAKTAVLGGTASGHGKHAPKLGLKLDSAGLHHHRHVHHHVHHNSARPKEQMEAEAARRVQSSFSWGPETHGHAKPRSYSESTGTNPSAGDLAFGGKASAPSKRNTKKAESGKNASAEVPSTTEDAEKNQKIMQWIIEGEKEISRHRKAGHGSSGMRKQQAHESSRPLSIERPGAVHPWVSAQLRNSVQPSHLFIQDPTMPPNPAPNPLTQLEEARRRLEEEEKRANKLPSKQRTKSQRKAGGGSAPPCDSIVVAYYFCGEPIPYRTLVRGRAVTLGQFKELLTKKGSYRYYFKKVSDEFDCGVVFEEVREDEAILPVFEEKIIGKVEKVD

Row | effect of a mutation on the interaction | Variant
1 | decreasing interaction | S1490A
